# Source: publication PMC3369926, “TRAM Is Involved in IL-18 Signaling and Functions as a Sorting Adaptor for MyD88” (PLoS ONE, 2012)
# T1: GST-IL-18Rβ-TIR (amino acid residues 407-599) (UniProt O95256 407-599)
# T1 construct: IL-18Rβ (formerly IL-1AcPL), cytosolic TIR domain, residues 407-599; also called IL-18Rβ TIR domain; IL-1AcPL TIR; source: purified as GST fusion protein (pGEX vector), by methods previously described
# T1 sequence (looked up): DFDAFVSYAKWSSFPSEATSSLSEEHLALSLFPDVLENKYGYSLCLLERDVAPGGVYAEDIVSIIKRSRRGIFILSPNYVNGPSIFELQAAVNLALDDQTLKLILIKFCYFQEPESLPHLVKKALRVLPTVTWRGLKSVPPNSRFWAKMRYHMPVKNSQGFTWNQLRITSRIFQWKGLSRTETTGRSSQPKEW
# B1: GST-MyD88-TIR (wild type, amino acid residues 148-296) (domain or fragment, UniProt Q99836 148-296, looked up)
# chain: TTLDDPLGHMPERFDAFICYCPSDIQFVQEMIRQLEQTNYRLKLCVSDRDVLPGTCVWSIASELIEKRCRRMVVVVSDDYLQSKECDFQTKFALSLSPGAHQKRLIPIKYKAMKKEFPSILRFITVCDYTNPCTKSWFWTRLAKALSLP
# notes: MyD88, TIR domain, amino acid residues 148-296; also called wild-type MyD88-TIR; MyD88 TIR domain; source: purified as GST fusion protein (pGEX vector), by methods previously described
# B2: GST-MyD88-TIR R217A (148-296) (domain or fragment, UniProt Q99836 148-296, looked up)
# chain: TTLDDPLGHMPERFDAFICYCPSDIQFVQEMIRQLEQTNYRLKLCVSDRDVLPGTCVWSIASELIEKRCARMVVVVSDDYLQSKECDFQTKFALSLSPGAHQKRLIPIKYKAMKKEFPSILRFITVCDYTNPCTKSWFWTRLAKALSLP
# notes: MyD88, TIR domain, residues 148-296, with R217A; also called Site I mutant R217A; source: purified as GST fusion protein (pGEX vector), by methods previously described
# B3: GST-MyD88-TIR R288A (148-296) (domain or fragment, UniProt Q99836 148-296, looked up)
# chain: TTLDDPLGHMPERFDAFICYCPSDIQFVQEMIRQLEQTNYRLKLCVSDRDVLPGTCVWSIASELIEKRCRRMVVVVSDDYLQSKECDFQTKFALSLSPGAHQKRLIPIKYKAMKKEFPSILRFITVCDYTNPCTKSWFWTALAKALSLP
# notes: MyD88, TIR domain, residues 148-296, with R288A; also called Site III mutant R288A; source: purified as GST fusion protein (pGEX vector), by methods previously described
# B4: GST-MyD88-TIR R196A (148-296) (domain or fragment, UniProt Q99836 148-296, looked up)
# chain: TTLDDPLGHMPERFDAFICYCPSDIQFVQEMIRQLEQTNYRLKLCVSDADVLPGTCVWSIASELIEKRCRRMVVVVSDDYLQSKECDFQTKFALSLSPGAHQKRLIPIKYKAMKKEFPSILRFITVCDYTNPCTKSWFWTRLAKALSLP
# notes: MyD88, TIR domain, residues 148-296, with R196A; also called Site II mutant R196A; source: purified as GST fusion protein (pGEX vector), by methods previously described
# B5: GST-IL-18Rα-TIR (amino acid residues 374-541) (domain or fragment, UniProt Q13478 374-541, looked up)
# chain: TYDAFVSYLKECRPENGEEHTFAVEILPRVLEKHFGYKLCIFERDVVPGGAVVDEIHSLIEKSRRLIIVLSKSYMSNEVRYELESGLHEALVERKIKIILIEFTPVTDFTFLPQSLKLLKSHRVLKWKADKSLSYNSRFWKNLLYLMPAKTVKPGRDEPEVLPVLSES
# notes: IL-18Rα (formerly IL-1Rrp), cytosolic TIR domain, residues 374-541; also called IL-18Rα TIR domain; IL-1Rrp TIR; source: purified as GST fusion protein (pGEX vector), by methods previously described
# B6: TRAM-TIR (amino acid residues 66-235) (domain or fragment, human, UniProt Q86XR7 66-235, looked up)
# chain: EEMFEEEAEEEVFLKFVILHAEDDTDEALRVQNLLQDDFGIKPGIIFAEMPCGRQHLQNLDDAVNGSAWTILLLTENFLRDTWCNFQFYTSLMNSVNRQHKYNSVIPMRPLNNPLPRERTPFALQTINALEEESRGFPTQVERIFQESVYKTQQTIWKETRNMVQRQFIA
# notes: TRAM (TICAM-2), human, TIR domain, residues 66-235; also called TIR domain of human TRAM; TRAM TIR domain; source: purified; subcloned into a pGEX vector, obtained by a similar procedure as previously described for the MyD88-TIR
# Molecular target: B6
# Experiment: pull-down; GST fusion proteins held on Glutathione Sepharose 4B, three hours at 4°C; four washes with 20 mM potassium phosphate (pH 6.0), 100 mM KCl, 0.1 mM EDTA, 10 mM DTT, 0.5% Triton X100; SDS-PAGE with Coomassie staining; in triplicate
# Conditions: both partners purified
row,Binder,binding result
1,B1,binds
2,B2,binds
3,B3,binds
4,B4,binds
5,B5,binds

# Molecular target: T1, GST-IL-18Rβ-TIR (amino acid residues …)
# Experiment: as above
# Conditions: both partners purified
row,Binder,binding result
1,B6,binds
